Experiments:
Test in all cases: cell_activity
[1] = tested on: 8196zKK D467A E490K,I538K,D467A (FokI) (synthetic construct); settings: TI with 8267EL; NHEJ 0.0
[2] = tested on: 8196zKK (ZFN-R-KK) E490K,I538K (FokI) (synthetic construct); settings: NHEJ with 8267EL; TI 29.4%; K562
[3] = tested on: 8196zDR D483R (FokI) (synthetic construct); settings: NHEJ with 8267RD; TI 28.4%
[4] = tested on: 8267RD R487D (FokI) (synthetic construct); settings: NHEJ with 8196zDR; TI 28.4%
[5] = tested on: 8196zDR D450N D483R,D450N (FokI) (synthetic construct); settings: TI with 8267RD; NHEJ 0.0
[6] = tested on: 8196zDR D467A D483R,D467A (FokI) (synthetic construct); settings: TI with 8267RD; NHEJ 0.0

CCR5 endogenous locus (K562)
activity [1]: 1.1% | activity [2]: 54.3% | activity [3]: 36.7% | activity [4]: 36.7% | activity [5]: 1.2% | activity [6]: 0.7%
